Experimental data reported in the supplement of paper PMC10724198.
± gives the standard deviation of the averaged measurements.

What was measured:
[1] = tested on: Saccharomyces cerevisiae; experiment: protein stability index of tFT-peptide fusion in wild type (PSI (0-1 scale)); higher = more stable (slower turnover); conditions: genetic background: wild type
Method: (§1)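 MPS profiling in S. cerevisiae of two library types built from selected 12-aa C-degron peptides (IN1, IN2, LN1, LN3, VN2, R1-R5, W1-W3, Atg1 and Rpa12 C-termini): saturation mutagenesis libraries and C-terminal +1 capping libraries (13 aa). Each peptide is fused to the C-terminus of a sfGFP-mCherry timer, after a GGGS linker. Cells are FACS-sorted into 8 mCherry/sfGFP bins and sequenced. PSI runs from 0 (unstable) to 1 (stable), measured once in wild type and in the das1Δ or doa10Δ background.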

[2] = tested on: Saccharomyces cerevisiae; experiment: protein stability index of tFT-peptide fusion in deletion strain of DOA10 (PSI (0-1 scale)); higher = more stable (slower turnover)
Method: as §1

[3] = tested on: Saccharomyces cerevisiae; experiment: protein stability index of tFT-peptide fusion in deletion strain of DAS1 (PSI (0-1 scale)); higher = more stable (slower turnover)
Method: as §1

[4] = tested on: Saccharomyces cerevisiae; experiment: protein stability index of tFT-peptide fusion (C-terminal peptide) (PSI (0-1 scale)); higher = more stable (slower turnover); conditions: genetic background: wild type; temperature: 30 C
[5] = tested on: Saccharomyces cerevisiae; experiment: as above
Method: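 MPS profiling in S. cerevisiae of the tFT-X12 degron library: putative degron peptides plus stable controls, 12 aa, fused to the C-terminus of a sfGFP-mCherry timer. Cells are FACS-sorted into 8 mCherry/sfGFP bins and deep-sequenced. PSI runs from 0 (unstable) to 1 (stable). Backgrounds are wild type, das1Δ and doa10Δ at 30 °C, and wild type, das1Δ, cdc34-1 and cdc53-1 at 37 °C; 2-3 technical replicates each.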
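Wherever protein stability index of tFT-peptide fusion (C-terminal peptide) is given: PSI is a weighted mean of sequencing reads over stability bins, variants kept only with over 10 reads, mCherry proximal and sfGFP distal, peptide attached via GGGS linker.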
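Wherever protein stability index of tFT-peptide fusion in deletion strain of DAS1 is given: PSI is a weighted mean of each variant's read distribution over the sorted stability bins, computed only for variants having over 10 reads in total.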
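Wherever protein stability index of tFT-peptide fusion in deletion strain of DOA10 is given: PSI per variant is the weighted mean of its sequencing read distribution over the sorted stability bins, counting only variants with over 10 reads summed across bins.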
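Wherever protein stability index of tFT-peptide fusion in wild type is given: PSI derived as read-weighted mean over the 8 sorting bins, only variants exceeding 10 total reads kept, mCherry placed adjacent to the peptide and sfGFP distal.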

Row | Sequence | protein stability index [1] | protein stability index [3] | other results
1 | RSLRVLLPLYFV | 0.25 |  | protein stability index [2]: 0.428
2 | RSLRVLKPLYFR | 0.304 |  | protein stability index [2]: 0.675
3 | AIYLPMCPLLLR | 0.268 |  | protein stability index [2]: 0.617
4 | RVTHLDAIYFRI | 0.471 |  | protein stability index [2]: 0.645
5 | RVTRLDAIDFRI | 0.668 |  | protein stability index [2]: 0.746
6 | KLVSLPILLFFR | 0.0816 |  | protein stability index [2]: 0.612
7 | CLVSLPILGFFR | 0.625 |  | protein stability index [2]: 0.661
8 | AITLPMCDLLLR | 0.639 |  | protein stability index [2]: 0.675
9 | GLYMCSVGCQFR | 0.618 |  | protein stability index [2]: 0.647
10 | RVTRLDAIYFRIF | 0.0593 |  | protein stability index [2]: 0.0962
11 | CIVSLPILLFFR | 0.0595 |  | protein stability index [2]: 0.566
12 | GLYMCSVGCWFRS | 0.267 |  | protein stability index [2]: 0.521
13 | GLYMCSVGCWFRW | 0.231 |  | protein stability index [2]: 0.621
14 | CMVSLPILLFFR | 0.0703 |  | protein stability index [2]: 0.584
15 | CLVCLPILLFFR | 0.104 |  | protein stability index [2]: 0.494
16 | CLQSLPILLFFR | 0.0983 |  | protein stability index [2]: 0.631
17 | GLYMCSVGCWNR | 0.618 |  | protein stability index [2]: 0.64
18 | AITLPMCPMLLR | 0.392 |  | protein stability index [2]: 0.661
19 | GLYMCSVKCWFR | 0.415 |  | protein stability index [2]: 0.462
20 | CLVSLPILLFYR | 0.116 |  | protein stability index [2]: 0.585
21 | RSARVLLPLYFR | 0.336 |  | protein stability index [2]: 0.687
22 | RVTRLDAIYRRI | 0.684 |  | protein stability index [2]: 0.721

Row | Sequence | protein stability index [1] | protein stability index [3] | other results
23 | CLVSLPILLFHR | 0.481 |  | protein stability index [2]: 0.637
24 | AITLPMCPLLLD | 0.608 |  | protein stability index [2]: 0.684
25 | LAILRQKMNHQN | 0.137 | 0.67 | 
26 | CTSCGRKFRTNN | 0.456 | 0.717 | 
27 | PSLAASFWRVVA | 0.131 | 0.68 | 
28 | CTSCGYKFRSNN | 0.508 | 0.715 | 
29 | PSLAASFWRVVG | 0.146 | 0.686 | protein stability index [4]: 0.197 ± 0.013; protein stability index ([5]; genetic background: cdc34-1, temperature: 37 C): 0.595 ± 0.1; protein stability index ([5]; genetic background: cdc53-1, temperature: 37 C): 0.749 ± 0.016; protein stability index ([5]; genetic background: das1 deletion, temperature: 30 C): 0.694 ± 0.051; protein stability index ([5]; genetic background: das1 deletion, temperature: 37 C): 0.7397 ± 0.0053; protein stability index ([5]; genetic background: doa10 deletion, temperature: 30 C): 0.102 ± 0.031; protein stability index ([5]; genetic background: wild type, temperature: 30 C): 0.109 ± 0.037; protein stability index ([5]; genetic background: wild type, temperature: 37 C): 0.243 ± 0.0024
30 | ARWRVGLCRGAS | 0.657 | 0.671 | 
31 | CTSAGYKFRTNN | 0.303 | 0.678 | 
32 | PDKRNHEIKLLN | 0.447 | 0.596 | 
33 | KKHKKGQKQKINY | 0.643 | 0.663 | 
34 | FSMNWTFRYWVN | 0.0654 | 0.496 | 
35 | CTSCIYKFRTNN | 0.163 | 0.666 | 
36 | ARWRVGLWRGASN | 0.658 | 0.689 | 
37 | PDKRNMLIKLLN | 0.0899 | 0.722 | 
38 | FSMRWTFRYWVNA | 0.163 | 0.496 | 
39 | PDKRNRLIKLLN | 0.141 | 0.592 | 
40 | ARWRVGLWRGMS | 0.202 | 0.663 | 
41 | RLIQPLPVQFLY | 0.28 | 0.682 | 
42 | PRKRNHLIKLLN | 0.141 | 0.633 | 
43 | ARWRVGIWRGAS | 0.344 | 0.691 | 
44 | VRGAVGGWRLEG | 0.642 | 0.69 | 

Row | Sequence | protein stability index [1] | protein stability index [3] | other results
45 | ARWRVGLHRGAS | 0.63 | 0.685 | 
46 | RLIQPLPVRFLN | 0.0593 | 0.6 | 
47 | ARWRVGLIRGAS | 0.561 | 0.665 | 
48 | LVVYLSCVACIA | 0.0168 | 0.0258 | 
49 | PDARNHLIKLLN | 0.12 | 0.612 | 
50 | VRGAVGGWRLVGG | 0.66 | 0.682 | 
51 | PSLAASFWHVVG | 0.46 | 0.691 | 
52 | VRGAVGGWDLVG | 0.664 | 0.656 | 
53 | LVVYLSCVACWN | 0.0216 | 0.0568 | 
54 | LVVRLSCVACIN | 0.0177 | 0.0347 | 
55 | QRGAVGGWRLVG | 0.161 | 0.655 | 
56 | FSLAASFWRVVG | 0.121 | 0.671 | 
57 | PDKRNHLIKALN | 0.252 | 0.589 | 
58 | RVVYLSCVACIN | 0.0144 | 0.0603 | 
59 | LKILRQNMNHQN | 0.255 | 0.667 | 
60 | VRGAVGGWRLVC | 0.143 | 0.634 | 
61 | KKHDKGQKQKIN | 0.0762 | 0.587 | 
62 | RLIQPLQVQFLN | 0.0288 | 0.63 | 
63 | PDKRNHLIKLSN | 0.486 | 0.609 | 
64 | KKHKKGQKQKINI | 0.649 | 0.661 | 
65 | VRGAVGVWRLVG | 0.16 | 0.665 | 
66 | LVVYLSCGACIN | 0.283 | 0.3 | 

Row | Sequence | protein stability index [1] | protein stability index [3] | other results
67 | ARWRVGKWRGAS | 0.327 | 0.687 | 
68 | KGHKKGQKQKIN | 0.108 | 0.57 | 
69 | CDSCGYKFRTNN | 0.251 | 0.691 | 
70 | FPMRWTFRYWVN | 0.062 | 0.574 | 
71 | PSLAASFWRDVG | 0.645 | 0.695 | 
72 | PSLAASKWRVVG | 0.138 | 0.666 | 
73 | CTSCGYKFQTNN | 0.175 | 0.723 | 
74 | FSMRWTFRYAVN | 0.158 | 0.585 | 
75 | PDKENHLIKLLN | 0.265 | 0.602 | 
76 | ARWRVGLWYGAS | 0.603 | 0.718 | 
77 | RLIQPLPVQFLNP | 0.65 | 0.664 | 
78 | LKIARQKMNHQN | 0.277 | 0.694 | 
79 | LQVYLSCVACIN | 0.0249 | 0.0994 | 
80 | PDKRNHLIKLLNC | 0.124 | 0.663 | 
81 | PDKRTHLIKLLN | 0.0881 | 0.655 | 
82 | PSLAASFWQVVG | 0.465 | 0.692 | 
83 | PDKRNHLIKNLN | 0.473 | 0.54 | 
84 | PDKRNHLFKLLN | 0.112 | 0.609 | 
85 | LVVYLSCVGCIN | 0.244 | 0.293 | 
86 | LVTYLSCVACIN | 0.0357 | 0.167 | 
87 | ARWRVGLWRGASY | 0.653 | 0.69 | 
88 | PDKRNHLIKLLW | 0.578 | 0.586 | 

Row | Sequence | protein stability index [1] | protein stability index [3] | other results
89 | LRVYLSCVACIN | 0.0194 | 0.121 | 
90 | VRGIVGGWRLVG | 0.171 | 0.682 | 
91 | LKILNQKMNHQN | 0.395 | 0.688 | 
92 | RLIQPLPVFFLN | 0.0542 | 0.586 | 
93 | RLIDPLPVQFLN | 0.121 | 0.62 | 
94 | VRRAVGGWRLVG | 0.145 | 0.695 | 
95 | CTSCGYKFRTNNQ | 0.681 | 0.673 | 
96 | RLIQPLPVQGLN | 0.659 | 0.739 | 
97 | KKHKKGQKQKINV | 0.647 | 0.657 | 
98 | LVCYLSCVACIN | 0.0123 | 0.0279 | 
99 | FSMRWTFQYWVN | 0.0522 | 0.502 | 
100 | VRGAVGGWVLVG | 0.202 | 0.659 | 
101 | CTSYGYKFRTNN | 0.145 | 0.688 | 
102 | PDKRNHLINLLN | 0.113 | 0.605 | 
103 | RLIQPLPVQFLV | 0.0819 | 0.643 | 
104 | LVVYLSQVACIN | 0.0161 | 0.0854 | 
105 | KKHKQGQKQKIN | 0.0536 | 0.73 | 
106 | CTSCGYTFRTNN | 0.245 | 0.708 | 
